The values that follow come from US20100076060.

Data set [1] deals with T1, 4-1BB (CD137) extracellular portion (Mus musculus) (UniProt P20334).
T1 sequence: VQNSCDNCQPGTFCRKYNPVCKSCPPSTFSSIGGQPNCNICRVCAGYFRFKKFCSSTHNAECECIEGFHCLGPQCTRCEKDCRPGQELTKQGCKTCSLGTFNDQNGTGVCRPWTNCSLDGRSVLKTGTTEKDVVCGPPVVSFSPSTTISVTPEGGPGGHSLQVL
The experiment in a line: filter. Particulars: 2'-F pyrimidines.

In data set [2] the target is 4-1BB (CD137) extracellular portion (Homo sapiens) (UniProt Q07011). The data set is described as follows: filter. The following applies: 2'-F pyrimidines; alternating mouse/human selection pool.
4-1BB (CD137) extracellular portion (Homo sapiens), sequence (Q07011 24-186): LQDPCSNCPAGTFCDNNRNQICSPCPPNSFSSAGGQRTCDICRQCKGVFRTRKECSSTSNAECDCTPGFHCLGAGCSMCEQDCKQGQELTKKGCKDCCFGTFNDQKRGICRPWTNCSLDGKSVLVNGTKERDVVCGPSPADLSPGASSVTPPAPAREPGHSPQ

As a reminder, the Kd is a measure of binding affinity in units of concentration. Low values mean a tighter complex, high ones a looser complex. On to “GGGAGAGAGGAAGAGGGAUGGGNNNNNNNNNNNNNNNNNNNNNNNNNNNNNNNNNNNNNNNNCAUAACCCAGAGGUCGAUAGUACUGGAUCCCCCC [mouse/human 4-1BB alternating selection final pool]”, for which the Kd in data set [1] (alternating mouse/human selection pool) was 200 nM; in data set [2], 23 nM.

With “GGGAGAGAGGAAGAGGGAUGGGNNNNNNNNNNNNNNNNNNNNNNNNNNNNNNNNNNNNNNNNCAUAACCCAGAGGUCGAUAGUACUGGAUCCCCCC [mouse 4-1BB selection round 12 pool]”, the dissociation constant Kd in data set [1] (round 12 pool) is 50 nM.
